Reference: patent publication US20200109196A1 (MOGAM INSTITUTE FOR BIOMEDICAL RESEARCH, published 2020)
Where a chain is given by its changes, count along the chain named.

T1: human CEACAM1 expressed on the cell surface (CEACAM1-Jurkat T cells); HEK293 cells transfected with human … (human, UniProt P13688 35-526)
T1 construct: whole, on cells; also called CCM1
T1 sequence (looked up): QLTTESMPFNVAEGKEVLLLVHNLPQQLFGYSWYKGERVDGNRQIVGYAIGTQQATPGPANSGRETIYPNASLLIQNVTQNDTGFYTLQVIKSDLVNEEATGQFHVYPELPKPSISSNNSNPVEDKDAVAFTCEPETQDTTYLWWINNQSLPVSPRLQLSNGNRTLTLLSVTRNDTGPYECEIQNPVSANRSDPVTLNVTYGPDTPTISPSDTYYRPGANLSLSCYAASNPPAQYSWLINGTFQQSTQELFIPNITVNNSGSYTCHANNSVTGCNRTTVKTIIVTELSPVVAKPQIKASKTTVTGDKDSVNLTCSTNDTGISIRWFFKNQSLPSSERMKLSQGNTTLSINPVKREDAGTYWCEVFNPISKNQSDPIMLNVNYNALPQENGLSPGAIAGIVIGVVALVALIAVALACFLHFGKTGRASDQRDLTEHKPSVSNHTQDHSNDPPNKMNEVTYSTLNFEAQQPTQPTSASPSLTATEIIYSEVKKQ

T2: CEACAM8 expressed on the surface of HEK293 cells (human, UniProt P31997 35-320)
T2 construct: whole, on cells
T2 sequence (looked up): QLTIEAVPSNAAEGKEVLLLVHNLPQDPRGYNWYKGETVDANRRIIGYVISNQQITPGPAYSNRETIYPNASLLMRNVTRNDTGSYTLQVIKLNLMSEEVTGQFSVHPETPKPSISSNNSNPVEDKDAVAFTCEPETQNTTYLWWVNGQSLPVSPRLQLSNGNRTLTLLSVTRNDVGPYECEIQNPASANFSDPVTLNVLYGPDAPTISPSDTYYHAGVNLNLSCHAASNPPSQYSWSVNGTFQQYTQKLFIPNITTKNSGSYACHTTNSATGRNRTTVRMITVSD

T3: CEACAM6 expressed on the surface of HEK293 cells (human, UniProt P40199 35-320)
T3 construct: whole, on cells; GFP-tagged clone; also called CEACAM6-GFP
T3 sequence (looked up): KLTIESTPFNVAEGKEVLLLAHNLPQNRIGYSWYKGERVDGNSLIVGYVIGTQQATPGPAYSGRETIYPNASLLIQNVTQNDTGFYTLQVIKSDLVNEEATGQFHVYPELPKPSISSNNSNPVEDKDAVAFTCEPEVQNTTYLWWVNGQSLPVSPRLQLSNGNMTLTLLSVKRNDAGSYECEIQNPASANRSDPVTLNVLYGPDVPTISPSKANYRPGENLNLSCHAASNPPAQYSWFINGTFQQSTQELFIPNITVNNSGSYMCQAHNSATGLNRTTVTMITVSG

B1: C25 (antibody, human IgG4 S228P, lambda, V domains shown)
VH: EVQLLESGGGLVQPGGSLRLSCAASGFTFSNYAMSWVRQAPGKGLEWVSVISHGGGSIYYADSVKGRLTISRDNSKNTLYLQMNSLRAEDTAVYYCARDPTKGYAPTFDYWGQGTLVTVSS
VL: QSVLTQPPSASGTPGQRVTISCSGSSSNIGNNYVSWYQQLPGTAPKLLIYADSKRPSGVPDRFSGSKSGTSASLAISGLRSEDEADYYCGAWDASLNGYVFGGGTKLTVLG
notes: Made in ExpiHEK293F cells, protein A purified. huIgG4 is the isotype control and anti-huIgG4 the detection reagent; the isotype is not otherwise stated; also called anti-CEACAM1 antibody C25
B2: 4R9 (antibody, human IgG4 S228P, lambda, V domains shown)
VH: B1 VH
VL: B1 VL with K54R, A94L
notes: also called C25-derived clone 4R9
B3: 4R9_H2-2 (antibody, human IgG4 S228P, lambda, V domains shown)
VH: B1 VH with T107L
VL: B1 VL with K54R, A94L
notes: also called C25-derived clone 4R9_H2-2
B4: 4R9_H4-n20 (antibody, human IgG4 S228P, lambda, V domains shown)
VH: B1 VH with T28N
VL: B1 VL with K54R, A94L
notes: also called C25-derived clone 4R9_H4-n20
B5: 4R26 (antibody, human IgG4 S228P, lambda, V domains shown)
VH: B1 VH
VL: B1 VL with P56L, A94G, S95R
notes: also called C25-derived clone 4R26

Legend:
[1] = biological target: T1, human CEACAM1 expressed on the cell …; experiment: flow cytometry on CEACAM1-Jurkat T cells, PE goat anti-human F(ab)2, MFI [b]
Protocol: (§1) The CEACAM1-Jurkat T cells prepared above were treated with Fc block solution and incubated for 15 minutes. […] Herein, it is noted that the cell numbers were adjusted to 1×10⁵. The cells incubated with the antibodies were repeatedly subjected to the washing procedure of resuspending the cells in a FACS buffer and centrifuging the solution at 1,500 rpm.
(§2) PE-conjugated goat anti-human F(ab)₂; (Sigma; Cat. No. P8047)) was diluted in the FACS buffer at a volume ratio of 1:200, and then added to the cells at 100 μl/well. Cells were resuspended well and incubated at 4° C. for 30 minutes in a dark condition.
(§3) The cells incubated with the fixation buffer were repeatedly subjected to the washing procedure of resuspending the cells in a FACS buffer, centrifuging the solution at 1,500 rpm, and discarding the supernatant. The washed cells were resuspended in 200 μl of a FACS buffer, and the mean fluorescence intensities (MFIs) of the PE-labeled cells were monitored by a FACS LSR-Fortessa. All FACS analyses were conducted using the FlowJo software.

[2] = biological target: T2, CEACAM8 expressed on the surface of …; experiment: flow cytometry on transfected HEK293 cells (GFP+ gate), PE goat anti-huIgG4 [a]
Protocol: (§4) HEK293 cells were added with 10 μg of each pEF1α-AcGFP-N1 vector (Clontech, Cat. No. 631973) as a control vector, CEACAM1, CEACAM3, CEACAM5, CEACAM6 and CEACAM8 plasmid vectors, followed by transfection under the condition of pulse voltage 1,100 V, pulse width 20 ms and pulse number 2. After 48 hours of transfection, GFP expression was confirmed by fluorescence microscopy. The cells were detached by treatment with 1 ml of TrypLE Express Solution (ThermoFisher Scientific; Cat. No. 12605010), resuspended in 9 ml of DMEM (Gibco, Cat. No. 11995-065) supplemented with 10% (v/v) FBS, and centrifuged at 1,200 rpm for 5 minutes, to remove the resulting supernatant.
(§5) After washing once with PBS, the cells were resuspended in a FACS buffer to obtain a concentration of 5×10⁵ cells/100 μl. Human Fc Block solution was added to the samples at 1 μl/sample, which were incubated at 4° C. for 10 minutes. The cells were treated with hulgG4 or one of the anti-CEACAM1 clones listed at 1 μg/5×10⁵ cells, which were incubated at 4° C. for 10 minutes. After washing with FACS buffer, the PE-labeled goat-anti-huIgG4 antibodies were diluted at a ratio of 1:200 in a FACS buffer, and added to the samples at 100 μl/sample, which were incubated at 4° C. for 30 minutes. The samples were filled with a FACS buffer up to 200 μl, and then centrifuged at 1,200 rpm for 5 minutes, to remove the resulting supernatant. The fixation buffer (300 μl) was added to resuspend the cells. The cells expressing GFP were selected in the FACS LSR-Fortessa device, and the expression of CEACAM members were evaluated respectively using the antibody specific to each CEACAM member (Table 3). Also, the binding of anti-CEACAM1 antibodies was evaluated by PE fluorescence channel and analyzed using the FlowJo software.

[3] = biological target: T3, CEACAM6 expressed on the surface of …; experiment: as above
Protocol: as §4, §5

[4] = biological target: T1, human CEACAM1 expressed on the cell …; experiment: flow cytometry on CEACAM1-Jurkat T cells; maximal MFI told of the 'other clones' as a group
Protocol: as §1, §2, §3

Binder	EC50 (read off the curve) [1]	binding result [2]	binding result [3]	MFI [4]
B1	~0.6 µg/mL	no binding	no binding	
B2	~0.05 µg/mL			8000
B3	~0.04 µg/mL			8000
B4	~0.4 µg/mL			
B5	~0.08 µg/mL			8000
